Our source for the Kd values is paper PMC7542843 (ACS Omega, 2020).

For one assay, the target named is EGF (Homo sapiens) (UniProt P01133). To be noted: cited from earlier work.
The target in assay [1] is biotinylated HER3 extracellular domain (ECD) (UniProt P21860 20-643, biotin on the C-terminal BirA biotinylation site). As to the kind of experiment: ELISA. (ELISA stands for enzyme-linked immunosorbent assay.)
Chain of biotinylated HER3 extracellular domain (ECD) (P21860 20-643): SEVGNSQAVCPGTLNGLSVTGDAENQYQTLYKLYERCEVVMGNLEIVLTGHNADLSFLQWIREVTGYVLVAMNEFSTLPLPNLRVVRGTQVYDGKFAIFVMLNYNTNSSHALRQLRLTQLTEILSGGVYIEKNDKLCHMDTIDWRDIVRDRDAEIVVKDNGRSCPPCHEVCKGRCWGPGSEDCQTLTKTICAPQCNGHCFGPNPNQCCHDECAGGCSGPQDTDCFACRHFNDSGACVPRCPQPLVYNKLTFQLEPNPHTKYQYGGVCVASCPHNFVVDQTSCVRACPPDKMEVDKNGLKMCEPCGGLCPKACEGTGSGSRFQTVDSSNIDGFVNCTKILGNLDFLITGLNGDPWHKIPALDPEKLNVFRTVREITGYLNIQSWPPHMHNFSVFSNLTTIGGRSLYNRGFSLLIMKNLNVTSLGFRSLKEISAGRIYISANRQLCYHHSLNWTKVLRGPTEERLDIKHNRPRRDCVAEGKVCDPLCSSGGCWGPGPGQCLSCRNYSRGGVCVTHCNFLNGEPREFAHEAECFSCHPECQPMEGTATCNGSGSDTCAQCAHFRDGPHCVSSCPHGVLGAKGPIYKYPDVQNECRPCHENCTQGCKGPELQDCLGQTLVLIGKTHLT

Chain of EGF (Homo sapiens) (P01133 971-1023): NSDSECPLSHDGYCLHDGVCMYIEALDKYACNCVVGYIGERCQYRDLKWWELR

With EGFR (from UniProt P00533), in the assay with EGF (Homo sapiens), the Kd is 177 nM.

B1: Heregulin-β1 (Hrgβ1) (ligand)
chain: TSHLVKCAEKEKTFCVNGGECFMVKDLSNPSRYLCKCPNEFTGDRCQNYVMASFYKHLGIEFMEAEELYQK
Consider B1, for which, in assay [1], the Kd was 12.6 nM.

Usually Kd stands for the constant that tells how readily two partners part at equilibrium.
